Measurements: article PMC7196632, “NAD^+ biosynthesis in bacteria is controlled by global carbon/nitrogen levels via PII signaling” (The Journal of Biological Chemistry, 2020)
Blank lines part the entries; values can stand above or below the molecule they belong to.

Key:
[1] = molecular target: Azospirillum brasilense type 2 glutamine-dependent NAD synthetase AbNadE2, native (untagged), purified (Azospirillum brasilense)
[2] = molecular target: N-terminal His-tagged GlnZ protein of Azospirillum brasilense (Azospirillum brasilense) (UniProt P70731); test: BLI; Octet K2; His-GlnZ (2 ug/ml) immobilised on Ni-NTA sensor tip, AbNadE2 30-2000 nM (dimer) as analyte, with ATP (legend: 5 mM MgCl2, 1 mM ATP; methods: 50 mM Tris-HCl pH 7, 50 mM KCl, 10 mM MgCl2, 2 mM ATP, 2.5 mM NAD+, 1 mg/ml BSA)
[3] = molecular target: N-terminal His-tagged GlnZ protein of Azospirillum brasilense (Azospirillum brasilense) (UniProt P70731); test: BLI; Octet K2; His-GlnZ immobilised on Ni-NTA sensor tip, AbNadE2 as analyte, with ADP (methods: 50 mM Tris-HCl pH 7, 50 mM KCl, 10 mM MgCl2, 2 mM ADP, 2.5 mM NAD+, 1 mg/ml BSA)
ScNadE2 (ScNadE^Gln) = molecular target: T1, ScNadE2 (ScNadE^Gln) (Synechocystis sp. PCC 6803, UniProt P74292); test: discontinuous assay of PPi release (EnzChek pyrophosphate kit); format: biochemical; conditions: no PII (2 uM BSA); 100 nM enzyme, 4 mM ATP, 2 mM NaAD, 4 mM L-glutamine, 10 mM MgCl2, pH 8, 30 C
T1 construct: gene nadE; full-length, N-terminal His-tag removed with TEV protease, recombinant from E. coli (pTEV5-based pASnadESc); dimer
T1 sequence (P74292 1-558): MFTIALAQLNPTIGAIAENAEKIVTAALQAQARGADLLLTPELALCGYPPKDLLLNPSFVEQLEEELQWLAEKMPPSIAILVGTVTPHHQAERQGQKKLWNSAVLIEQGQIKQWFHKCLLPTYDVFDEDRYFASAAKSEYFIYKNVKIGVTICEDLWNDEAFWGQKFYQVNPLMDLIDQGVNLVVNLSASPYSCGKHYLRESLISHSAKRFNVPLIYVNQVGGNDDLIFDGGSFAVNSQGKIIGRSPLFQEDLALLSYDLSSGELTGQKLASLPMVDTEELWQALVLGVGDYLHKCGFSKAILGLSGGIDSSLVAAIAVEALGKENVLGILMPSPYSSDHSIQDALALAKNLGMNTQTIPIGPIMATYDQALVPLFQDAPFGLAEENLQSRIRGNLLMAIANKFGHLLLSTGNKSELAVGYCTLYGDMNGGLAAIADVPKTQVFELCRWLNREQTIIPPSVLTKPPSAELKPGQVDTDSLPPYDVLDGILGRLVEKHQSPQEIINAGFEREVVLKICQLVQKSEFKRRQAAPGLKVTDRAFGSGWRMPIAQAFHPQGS

HsNadE2 (HsNadE2^Gln) = molecular target: T2, HsNadE2 (HsNadE2^Gln) (Herbaspirillum seropedicae, UniProt D8IX05); test: as above; format: biochemical; conditions: no PII (2 uM BSA); 100 nM enzyme, 4 mM ATP, 2 mM NaAD, 4 mM L-glutamine, 10 mM MgCl2, pH 8, 30 C
T2 construct: gene nadE; full-length, His-tag removed by thrombin, recombinant from E. coli; dimer
T2 sequence (D8IX05 1-565): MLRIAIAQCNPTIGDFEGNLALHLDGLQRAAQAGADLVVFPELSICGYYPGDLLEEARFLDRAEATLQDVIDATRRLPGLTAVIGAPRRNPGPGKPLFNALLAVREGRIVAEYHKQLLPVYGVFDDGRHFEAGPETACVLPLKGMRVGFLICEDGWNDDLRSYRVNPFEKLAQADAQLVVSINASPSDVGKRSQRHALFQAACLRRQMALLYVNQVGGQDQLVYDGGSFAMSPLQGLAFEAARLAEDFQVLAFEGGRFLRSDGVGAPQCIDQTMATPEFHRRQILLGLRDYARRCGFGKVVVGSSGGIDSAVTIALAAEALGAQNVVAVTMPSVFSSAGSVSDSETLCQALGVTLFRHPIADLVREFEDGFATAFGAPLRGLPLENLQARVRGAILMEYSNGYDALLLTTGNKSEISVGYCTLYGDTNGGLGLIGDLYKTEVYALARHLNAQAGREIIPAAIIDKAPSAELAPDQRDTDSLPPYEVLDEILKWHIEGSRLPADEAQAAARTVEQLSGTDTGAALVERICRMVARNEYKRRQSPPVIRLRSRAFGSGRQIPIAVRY

AbNadE2 (AbNadE2^Gln) = molecular target: T3, AbNadE2 (AbNadE2^Gln) (Azospirillum baldaniorum, UniProt A0A9P1JPD2); test: as above; format: biochemical; conditions: read-out: IC50 (also called Ki)
T3 construct: gene nadE; full-length, untagged ('native AbNadE2'), recombinant from E. coli, purified as described previously; homodimer
T3 sequence (A0A9P1JPD2 1-554): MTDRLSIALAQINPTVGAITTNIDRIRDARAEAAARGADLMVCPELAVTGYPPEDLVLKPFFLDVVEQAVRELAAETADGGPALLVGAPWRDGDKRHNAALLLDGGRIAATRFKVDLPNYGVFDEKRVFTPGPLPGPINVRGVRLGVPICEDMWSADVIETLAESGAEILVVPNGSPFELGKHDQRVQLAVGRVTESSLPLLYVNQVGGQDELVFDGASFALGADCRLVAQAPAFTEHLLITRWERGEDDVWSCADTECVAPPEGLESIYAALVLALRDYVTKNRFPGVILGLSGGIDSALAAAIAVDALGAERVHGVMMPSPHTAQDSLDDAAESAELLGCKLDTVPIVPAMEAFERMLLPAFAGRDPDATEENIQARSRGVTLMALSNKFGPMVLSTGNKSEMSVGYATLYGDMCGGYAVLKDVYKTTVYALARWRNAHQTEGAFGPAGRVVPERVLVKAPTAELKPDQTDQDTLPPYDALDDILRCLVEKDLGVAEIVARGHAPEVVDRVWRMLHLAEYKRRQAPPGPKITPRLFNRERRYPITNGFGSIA

[4] = molecular target: T4, GlnZ-AbNadE2 complex (NAD+ site on AbNadE2) (Azospirillum baldaniorum, UniProt A0A9P1JPD2); test: as above; format: biochemical
T4 construct: gene nadE; with Nitrogen regulatory protein P-II 2

[5] = molecular target: T5, GlnZ (with AbNadE2; 2-OG site on GlnZ) (Azospirillum brasilense, UniProt P70731); test: loss of GlnZ relief of NAD+ inhibition of AbNadE2 (PPi release); format: biochemical
T5 construct: GlnZ homotrimer, non-uridylylated (native in activity assay; N-terminal His-tag kept in BLI), recombinant from E. coli; with Glutamine-dependent NAD(+) synthetase

[6] = molecular target: T5, GlnZ (with AbNadE2; 2-OG site on GlnZ); test: biolayer interferometry, inhibition of GlnZ-AbNadE2 association; format: binding
Description: biolayer interferometry, inhibition of GlnZ-AbNadE2 association on GlnZ (with AbNadE2; 2-OG site on GlnZ) | The binding curves and Ki were determined using the manufactureŕs software

[7] = substrate: Nc1ncnc2c1ncn2[C@@H]1O[C@H](COP(=O)(O)OP(=O)([O-])OC[C@H]2O[C@@H]([n+]3cccc(C(=O)O)c3)[C@H](O)[C@@H]2O)[C@@H](O)[C@H]1O; test: NAD synthetase activity, Michaelis-Menten fit; format: biochemical, Azospirillum baldaniorum; conditions: without NAD+, pH 8, 30 C
purified protein = substrate: NC(=O)CC[C@H](N)C(=O)O; test: purified protein; conditions: without NAD+, pH 8, 30 C

N-terminal His-tagged GlnZ protein of Azospirillum brasilense (Azospirillum brasilense), sequence (P70731 entry or part of it): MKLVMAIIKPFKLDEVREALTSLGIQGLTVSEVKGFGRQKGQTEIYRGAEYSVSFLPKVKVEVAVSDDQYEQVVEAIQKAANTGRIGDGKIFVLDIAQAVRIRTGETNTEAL
T5 sequence (P70731 1-112, one chain of several): as the sequence (P70731 entry or part of it) above
T4 sequence (P70731 1-112 partner, one chain of several): as the sequence (P70731 entry or part of it) above
Azospirillum brasilense type 2 glutamine-dependent NAD synthetase AbNadE2, native (untagged), purified (Azospirillum brasilense), sequence (A0A0P0EJG6 entry or part of it): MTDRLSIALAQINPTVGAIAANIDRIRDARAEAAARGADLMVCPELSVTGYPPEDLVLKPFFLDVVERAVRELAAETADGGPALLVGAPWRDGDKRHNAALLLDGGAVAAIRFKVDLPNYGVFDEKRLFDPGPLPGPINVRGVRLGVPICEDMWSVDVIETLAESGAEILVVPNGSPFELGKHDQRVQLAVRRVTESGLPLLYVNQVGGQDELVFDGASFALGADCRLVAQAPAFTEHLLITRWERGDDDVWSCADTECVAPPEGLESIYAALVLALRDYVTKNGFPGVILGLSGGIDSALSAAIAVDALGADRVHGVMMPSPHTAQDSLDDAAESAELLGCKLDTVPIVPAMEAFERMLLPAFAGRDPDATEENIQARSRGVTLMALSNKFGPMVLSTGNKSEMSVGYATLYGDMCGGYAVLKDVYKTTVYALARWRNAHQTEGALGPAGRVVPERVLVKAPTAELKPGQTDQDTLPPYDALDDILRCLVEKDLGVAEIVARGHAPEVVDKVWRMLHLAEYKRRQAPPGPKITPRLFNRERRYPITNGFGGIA

Molecule: N-terminal His-tagged GlnZ protein of Azospirillum brasilense (from UniProt P70731 1-112) (natural protein)
- activation of AbNadE2 NAD synthetase activity (PPi formation) at 2.5 mM NAD+, 100 nM AbNadE2, GlnZ 0.25-10 uM (trimer); Kact [1]: 640 nM

Molecule: NC(=O)c1ccc[n+]([C@@H]2O[C@H](COP(=O)([O-])OP(=O)(O)OC[C@H]3O[C@@H](n4cnc5c(N)ncnc54)[C@H](O)[C@@H]3O)[C@@H](O)[C@H]2O)c1 [NAD^+]
- relative activity vs NAD+ concentration (ScNadE2 (ScNadE^Gln)): In both cases, NadE2^Gln was inhibited by NAD^+ in a dose-dependent manner
- relative activity vs NAD+ concentration (HsNadE2 (HsNadE2^Gln)): In both cases, NadE2^Gln was inhibited by NAD^+ in a dose-dependent manner
- IC50 (AbNadE2 (AbNadE2^Gln)): 1000 µM
- IC50 [4]: 2500 µM

B1: AbNadE2 (AbNadE2^Gln) (Azospirillum baldaniorum) (protein)
chain: MTDRLSIALAQINPTVGAITTNIDRIRDARAEAAARGADLMVCPELAVTGYPPEDLVLKPFFLDVVEQAVRELAAETADGGPALLVGAPWRDGDKRHNAALLLDGGRIAATRFKVDLPNYGVFDEKRVFTPGPLPGPINVRGVRLGVPICEDMWSADVIETLAESGAEILVVPNGSPFELGKHDQRVQLAVGRVTESSLPLLYVNQVGGQDELVFDGASFALGADCRLVAQAPAFTEHLLITRWERGEDDVWSCADTECVAPPEGLESIYAALVLALRDYVTKNRFPGVILGLSGGIDSALAAAIAVDALGAERVHGVMMPSPHTAQDSLDDAAESAELLGCKLDTVPIVPAMEAFERMLLPAFAGRDPDATEENIQARSRGVTLMALSNKFGPMVLSTGNKSEMSVGYATLYGDMCGGYAVLKDVYKTTVYALARWRNAHQTEGAFGPAGRVVPERVLVKAPTAELKPDQTDQDTLPPYDALDDILRCLVEKDLGVAEIVARGHAPEVVDRVWRMLHLAEYKRRQAPPGPKITPRLFNRERRYPITNGFGSIA
notes: full-length, untagged ('native AbNadE2'), recombinant from E. coli, purified as described previously; homodimer
- Km [7]: 80 µM
- Km (purified protein): 720 µM

Continued, values first:

- Kd [2]: 0.3 µM
- koff [2]: 0.0272 s⁻¹
- kon [2]: 90900 M⁻¹ s⁻¹
- Kd [3]: 0.15 µM
Molecule: Azospirillum brasilense type 2 glutamine-dependent NAD synthetase AbNadE2, native (untagged), purified (enzyme)

- IC50 [5]: 15.5 µM
- Ki [6]: 52.1 µM
Molecule: O=C(O)CCC(=O)C(=O)O [2-oxoglutarate]
